Target: pyrrolated BSA (pyrBSA), P02769
Assay: ELISA
Details: chain shown with the change, left panel, antigen pyrBSA, read off a plot

Sequence of pyrrolated BSA (pyrBSA), P02769 (P02769 25-607): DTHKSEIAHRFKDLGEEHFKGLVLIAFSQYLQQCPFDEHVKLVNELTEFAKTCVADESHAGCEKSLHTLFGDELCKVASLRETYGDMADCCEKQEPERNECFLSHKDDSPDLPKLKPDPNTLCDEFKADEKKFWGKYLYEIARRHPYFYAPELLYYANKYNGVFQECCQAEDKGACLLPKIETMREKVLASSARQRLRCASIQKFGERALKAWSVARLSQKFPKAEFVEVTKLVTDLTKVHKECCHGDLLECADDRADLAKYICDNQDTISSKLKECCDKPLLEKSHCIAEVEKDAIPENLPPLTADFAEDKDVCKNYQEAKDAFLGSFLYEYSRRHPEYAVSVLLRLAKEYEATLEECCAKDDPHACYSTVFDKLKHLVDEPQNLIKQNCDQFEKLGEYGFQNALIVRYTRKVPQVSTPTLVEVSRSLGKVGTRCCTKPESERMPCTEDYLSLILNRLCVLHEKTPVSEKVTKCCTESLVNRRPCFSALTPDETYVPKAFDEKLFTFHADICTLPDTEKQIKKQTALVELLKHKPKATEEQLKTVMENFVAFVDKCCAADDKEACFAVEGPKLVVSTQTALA

- response (VH about 6.4 nM (4th point of the titration, read from the log x axis), parent: est. 1.7): 0.65 Abs (490 nm)
- response (VH about 16 nM (5th point of the titration, read from the log x axis), parent: est. 3.1): 1.9 Abs (490 nm)
B1: VH DO1 (VH-His6 of scFv DO1) R97A (protein)
chain: EVQLQQSGPELVKPGASVKMSCKASGYTFTSYVMHWVKQKPGQGLEWIGYINPHNDGTKYNEKFKGKATLTSDKSSSTAYMELSSLTSEDSAVYYCARKLAGFAYWGQGTLVTVSS
